{
  "source": "paper PMC3085179",
  "origin": "cited, not measured here",
  "target": "intermediate affinity IL-2 receptor (Homo sapiens) (UniProt P14784)",
  "sequence (P14784 27-240, chain 1 of 2)": "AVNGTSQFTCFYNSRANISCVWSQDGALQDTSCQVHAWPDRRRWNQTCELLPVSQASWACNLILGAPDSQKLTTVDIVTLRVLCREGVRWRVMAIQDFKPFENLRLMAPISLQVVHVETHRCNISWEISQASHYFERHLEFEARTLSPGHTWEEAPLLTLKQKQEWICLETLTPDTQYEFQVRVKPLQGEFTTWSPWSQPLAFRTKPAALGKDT",
  "sequence (P31785 23-262, chain 2 of 2, further chain)": "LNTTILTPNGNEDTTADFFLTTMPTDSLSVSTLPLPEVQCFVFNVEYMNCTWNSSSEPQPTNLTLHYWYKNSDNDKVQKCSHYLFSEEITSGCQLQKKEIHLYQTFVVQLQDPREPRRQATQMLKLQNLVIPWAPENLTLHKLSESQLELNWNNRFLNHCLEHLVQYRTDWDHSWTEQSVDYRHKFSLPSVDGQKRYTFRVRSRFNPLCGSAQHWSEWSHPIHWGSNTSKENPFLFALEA",
  "data": [
    {"substance": "IL-2 (from UniProt P60568)", "values": [
      {"measurement": "Kd", "value": 1, "unit": "nM"}
    ]}
  ]
}
